Biological target: cytochrome c oxidase (ferrocytochrome c:oxygen oxidoreductase), solubilized complex
Test: cell-based or functional assay

B1: cytochrome c wild type (recombinant horse heart CytC) (natural protein)
chain: not shown
modifications: heme c (hemoporphyrin type c, Fe ligated by His18 and Met80)
How did the “Activity in the cytochrome c oxidase reaction, % of WT” value turn out when B1 was run?
The value was 100%.

B2: cytochrome c with substitutions K8E/K27E/E62K/E69K/K72E/K86E/K87E/E90K (natural protein)
chain: not shown
modifications: heme c (hemoporphyrin type c)
B2 was tested. Which “Activity in the cytochrome c oxidase reaction, % of WT” value did it give?
The value was under 1%.

Source: publication PMC10528150, “Mutant Cytochrome C as a Potential Detector of Superoxide Generation: Effect of Mutations on the Function and Properties” (Cells, 2023)
